Measurements: article doi:10.1101/2022.12.06.518574
Like-named read-outs stand apart in the source and are kept apart here.

Tests used:
[1] = molecular target: Streptococcus pyogenes enolase, wild type (WT-Sen) (Streptococcus pyogenes (Group A, isolate AP53)); assay: cryo-EM structure
[2] = molecular target: Streptococcus pyogenes enolase, wild type (WT-Sen) (Streptococcus pyogenes (Group A, isolate AP53)); assay: AUC
[3] = molecular target: Streptococcus pyogenes enolase, wild type (WT-Sen) (Streptococcus pyogenes (Group A, isolate AP53)); assay: AUC; remark: listed apart in the source
[4] = molecular target: DOPG/Sen (the Sen variants of Figure 5A-D on DOPG vesicles); assay: flow cytometry of phospholipid vesicles

Sequence of Streptococcus pyogenes enolase, wild type (WT-Sen) (enzyme) (A2RFE3 whole entry): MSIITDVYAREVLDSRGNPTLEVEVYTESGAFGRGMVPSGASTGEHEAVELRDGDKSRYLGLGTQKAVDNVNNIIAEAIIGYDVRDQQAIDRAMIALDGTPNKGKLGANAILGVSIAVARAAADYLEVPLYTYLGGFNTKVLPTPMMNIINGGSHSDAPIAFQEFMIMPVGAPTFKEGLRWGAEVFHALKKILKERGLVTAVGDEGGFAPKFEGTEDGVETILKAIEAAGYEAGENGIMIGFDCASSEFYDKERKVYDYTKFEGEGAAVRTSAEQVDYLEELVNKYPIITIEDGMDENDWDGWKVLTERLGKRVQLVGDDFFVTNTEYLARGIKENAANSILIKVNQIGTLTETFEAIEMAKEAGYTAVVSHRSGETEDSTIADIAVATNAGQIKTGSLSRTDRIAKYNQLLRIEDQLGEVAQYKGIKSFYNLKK

| Substance | stoichiometry N [1] | percent as octamer [2] [%] | stoichiometry N [2] | percent as octamer [3] [%] | stoichiometry N [3] | percent of vesicles in the gate that defines DOPG/Sen bound to hPg [4] [%] |
| --- | --- | --- | --- | --- | --- | --- |
| Streptococcus pyogenes enolase, wild type (WT-Sen) (enzyme) | 8 | > 95 | 8 | > 95 | 8 |  |
| human plasminogen (hPg) (natural protein) |  |  |  |  |  | 83 to 93 |
